Key:
[1] = target: T1, human matriptase-2 mask ECD protein his tag (human, UniProt Q8IU80 78-576); assay: SPR (Table W)
T1 construct: MTP-2 ECD without the serine protease domain, with C-terminal linker and His tag; also called headless huMTP-2 ECD 78-576 aa; headless human MTP-2 ECD
T1 sequence: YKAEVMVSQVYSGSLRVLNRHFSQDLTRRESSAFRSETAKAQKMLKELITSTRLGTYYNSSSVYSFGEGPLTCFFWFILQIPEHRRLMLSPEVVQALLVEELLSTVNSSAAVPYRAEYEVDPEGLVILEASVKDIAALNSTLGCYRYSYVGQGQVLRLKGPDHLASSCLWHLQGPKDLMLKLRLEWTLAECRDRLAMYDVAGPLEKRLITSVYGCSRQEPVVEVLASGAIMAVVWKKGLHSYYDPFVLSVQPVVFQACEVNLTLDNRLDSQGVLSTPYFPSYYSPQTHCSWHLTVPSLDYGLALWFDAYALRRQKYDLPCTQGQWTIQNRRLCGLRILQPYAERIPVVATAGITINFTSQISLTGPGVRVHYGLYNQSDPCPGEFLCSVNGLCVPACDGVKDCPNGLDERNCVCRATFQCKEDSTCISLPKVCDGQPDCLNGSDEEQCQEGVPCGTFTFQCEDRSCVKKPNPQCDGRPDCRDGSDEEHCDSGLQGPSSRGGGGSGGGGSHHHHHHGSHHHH
Procedure: Off-rate screening was performed by surface plasmon resonance (SPR), using a Biacore 8K system (GE Healthcare). Anti-human Fc mix (˜1000 RU) were immobilised in both active and reference channels in HBS-P+ buffer (GE BR100671) pH 7.4. Anti-MTP-2 hulgG4PE antibodies were then captured for 60 sec at 10 μl/min at 1 μg/ml concentration (approximatively 35 and 50 RU were captured) only on the active channel. MTP-2 ECD protein analytes were then injected (at 100, 25, 6.25, 1.56 and 0 nM concentrations) for 120 sec (association time) at 30 μl/min and dissociation monitored for 600 sec. Multiple cycle kinetics mode was used with all 8 channels being used. Reference and background were subtracted from the sensorgrams for each antibody and data was fitted using a 1:1 interaction model in the Biacore evaluation software. Rmax, ka, kd globally fitted, RI=0.
NORI-011, NORI-008, NORI-003 and NORI-006 were all found to have cross-reactive binding to human, mouse, cyno and rat MTP-2 ECD proteins. […] The true KD value for NORI-008 could not be measured accurately for human or mouse MTP-2 due to a very slow off-rate.

[2] = target: T2, human matriptase-2 ECD protein his tag (human, UniProt Q8IU80 78-811); assay: HTRF competition with 647-labelled aprotinin for human MTP-2 protein
T2 construct: also called human MTP-2 ECD; huMTP-2
T2 sequence: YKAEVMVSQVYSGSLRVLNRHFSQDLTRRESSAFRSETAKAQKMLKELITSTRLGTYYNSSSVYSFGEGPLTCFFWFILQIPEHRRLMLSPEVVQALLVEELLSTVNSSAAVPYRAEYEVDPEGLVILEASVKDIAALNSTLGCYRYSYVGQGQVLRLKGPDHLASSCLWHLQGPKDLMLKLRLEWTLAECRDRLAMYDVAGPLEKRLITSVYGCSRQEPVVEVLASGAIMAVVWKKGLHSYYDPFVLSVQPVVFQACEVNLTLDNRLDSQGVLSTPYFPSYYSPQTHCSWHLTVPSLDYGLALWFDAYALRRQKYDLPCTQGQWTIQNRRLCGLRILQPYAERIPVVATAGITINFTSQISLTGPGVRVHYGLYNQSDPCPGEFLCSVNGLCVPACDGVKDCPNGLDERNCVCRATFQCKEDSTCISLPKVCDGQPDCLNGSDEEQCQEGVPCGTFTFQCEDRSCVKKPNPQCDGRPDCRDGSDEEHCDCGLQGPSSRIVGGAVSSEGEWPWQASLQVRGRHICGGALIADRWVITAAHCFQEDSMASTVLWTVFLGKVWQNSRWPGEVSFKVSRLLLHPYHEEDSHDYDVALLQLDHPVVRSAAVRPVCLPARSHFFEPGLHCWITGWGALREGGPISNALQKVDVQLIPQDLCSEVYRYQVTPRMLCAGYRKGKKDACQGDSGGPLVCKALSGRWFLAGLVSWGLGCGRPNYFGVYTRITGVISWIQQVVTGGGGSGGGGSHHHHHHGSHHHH
Excerpt: Aprotinin is a pan serine protease inhibitor and is known to occupy the active site of serine proteases. A HTRF competition assay against labelled aprotinin confirmed that NORI-003, NORI-006, NORI-008 and NORI-011 were binding at or near this same site and competed with aprotinin for binding to human MTP-2 protein. […] This was confirmed by their lack of competition of aprotinin against moMTP-2 while IC50 values in the enzymatic assay were similar to those of NORI-011. […] FIG. 8. Table L.
Antibodies were titrated into HTRF buffer (DPBS (Gibco—14190144) with 0.1% BSA (Sigma—A7906) and potassium fluoride 0.53M (Sigma—60240-250 G)) at 4× conc with a starting concentration of 200 nM. 5 μL/w of antibodies were added to 384-well white plates (Greiner—784904). Purified proteins of huMTP-2 and moMTP-2 were diluted into HTRF buffer (huMTP-2=40 nM and moMTP-2=240 nM) 4× final conc and plate 5 μL/w. Anti-MTP-2 mAb (NORI-037) in molgG1 backbone was then diluted to 1.2 nM 4× final conc with DELFIA Eu-N1 Rabbit Anti-Mouse-IgG antibody (AD0207) at a 1:1000 dilution 4× final conc in HTRF buffer. Finally, dilute 647-labelled Aprotinin (Sigma—A3428) in HTRF buffer to 20 nM 4× final conc and plate 5 μL/w. Incubate plates for 3 hours or more at RT in the dark. Read plate using HTRF 100 flashes protocol on the EnVision plate reader at 1H 2H and 3H. (Ex: 340 nm Em1: 620 nm Em2: 665 nm).

B1: NORI-006 (antibody, human IgG4 S228P, kappa, V domains shown)
VH: EVQLVESGGGLIKPGRSLRLSCTGSGFTFGDFGLSWFRQAPGKGLEWISFIRSKPYGGTTDYAASVKGRFTISRDDSKNVAYLQMNSLKTEDTAVYYCARNEILTGYYIFDYWGQGTLVTVSS
VL: DIQMTQSPSSLSASLGDRVTITCQASQDINNYLNWYQVQPGKAPKLLIFDASILETGVPSRFSGSGSGTDFSFTISSLQPEDIATYYCQQYDNLPLTFGGGTKVDFKR
notes: human IgG4PE, kappa
For B1, the binding result [1] was “no binding” and the IC50 [2] was 13.9 nM.

B2: NORI-008 (antibody, human IgG4 S228P, kappa, V domains shown)
VH: QVQLQESGPGLVKPSETLSLTCSVSGGSVSSGRYYWTWIRQPPGKGLEWIGYISNSGNTNYNPSLKSRVTISLDTSKKQFSLSLSAVTAADTAVYYCARGFIYDYWFDPWGQGSLVTVSS
VL: DSQMTQSPSSLSASVGDRVTITCQASQDIDNYLNWYQQRPGKAPKLLIYDASKLETGVPSRFSGSGSGTDFTFTISSLQPEDFATYYCQQYGNLPITFGQGTRLDIKR
notes: human IgG4PE, kappa, in the in vitro assays; a mouse IgG1 format was used in one in vivo study only; also called NORI-008 hulgG4PE; NORI-008 IgG
In the case of B2, the binding result [1] is reported as “no binding” and the IC50 [2] is reported as 0.256 nM.

B3: NORI-011 (antibody, human IgG4 S228P, lambda)
heavy: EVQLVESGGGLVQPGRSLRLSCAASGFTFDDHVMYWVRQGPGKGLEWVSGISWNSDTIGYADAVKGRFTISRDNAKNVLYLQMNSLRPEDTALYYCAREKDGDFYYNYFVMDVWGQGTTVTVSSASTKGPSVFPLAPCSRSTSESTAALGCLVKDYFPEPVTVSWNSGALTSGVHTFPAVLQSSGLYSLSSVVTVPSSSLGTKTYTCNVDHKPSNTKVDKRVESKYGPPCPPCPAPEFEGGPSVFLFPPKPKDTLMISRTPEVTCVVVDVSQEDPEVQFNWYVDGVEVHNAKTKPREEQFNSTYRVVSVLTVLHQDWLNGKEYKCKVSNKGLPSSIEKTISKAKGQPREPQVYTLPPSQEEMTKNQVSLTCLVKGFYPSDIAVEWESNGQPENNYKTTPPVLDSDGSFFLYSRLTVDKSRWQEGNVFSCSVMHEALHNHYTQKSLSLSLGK
light: QSALTQPPSASGSPGQSVTISCTGTSSDVGFYNFVSWYQQHPDKAPKVMIYEVSKRPSGVPDRFSGSKSGNTASLTVSGLQAEDEADYYCSSYAGSNKVVFGGGTKLTVLGQPKAAPSVTLFPPSSEELQANKATLVCLISDFYPGAVTVAWKADSSPVKAGVETTTPSKQSNNKYAASSYLSLTPEQWKSHRSYSCQVTHEGSTVEKTVAPTECS
notes: human IgG4PE, lambda; NORI-010 with a P124S mutation in the VH domain
With B3 the binding result [1] was “no binding” and the IC50 [2] was 17 nM.

B4: NORI-003 (antibody, human IgG4 S228P, kappa, V domains shown)
VH: EVQLVESGGGLVKPGRSLRLSCTGSGFTFGDFGMSWFRQAPGKGLEWVGFIRSKPYGGTTDYAPSVRGRFSISRDDSKGIVYLQMNSLRTEDTAVYYCSRNEILTGYYIFDYWGQGTLVTVSS
VL: DIQMTQSPSSLSASLGDRVTITCQASHDITNYLIWYQQKPGKAPRLLIFDASILETGVPSRFSGSGSGTDFTFTISSLQPEDFATYYCQQYYNLPLTFGGGTKVDIKR
notes: human IgG4PE, kappa; NORI-002 with the free cysteine of the VH domain mutated (printed as 'C49C')
With B4 the binding result [1] was “no binding” and the IC50 [2] was 7.28 nM.

Reference: patent publication US20230025129A1 (KYMAB, published 2023)
